Experiments:
Hck = Hck (UniProt P08631); experiment: phosphorylation enrichment, bacterial display (enrichment ratio); higher = better substrate or ligand; peptides without Tyr show the background
c-Src = experiment: as above
Jak2 = Jak2 (UniProt O60674); experiment: as above
Fyn = Fyn (UniProt P06241); experiment: as above
EPHB2 = EPHB2 (UniProt P29323); experiment: as above
EPHB1 = EPHB1 (UniProt P54762); experiment: as above
AncSZ = experiment: as above
Fer (mouse) = experiment: as above
MERTK = MERTK (UniProt Q12866); experiment: as above
FGFR3 = FGFR3 (UniProt P22607); experiment: as above
Fes = Fes (UniProt P07332); experiment: as above
c-Abl (mouse) = experiment: as above
FGFR1 = FGFR1 (UniProt P11362); experiment: as above
c-Src SH2 = experiment: SH2 binding enrichment of the phosphorylated peptide, bacterial display (enrichment ratio); higher = better substrate or ligand; peptides without Tyr show the background
SHP2-C SH2 = experiment: as above
Grb2 SH2 = Grb2 SH2 (UniProt P62993); experiment: as above
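Throughout, for SH2 binding enrichment of the phosphorylated peptide, bacterial display: peptide library displayed on the E. coli surface as eCPX fusions, selected cells deep-sequenced, score is each peptide's frequency after selection divided by its frequency in the input.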
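Throughout, for phosphorylation enrichment, bacterial display: 11-residue human phosphosite peptides and single-mutation variants displayed on the E. coli surface, counted by deep sequencing, each peptide's frequency after selection divided by its frequency in the unselected input library; frequency after pTyr selection over input frequency; kinase dosed for 20-30% of maximal phosphorylation in three min.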

MERTK, sequence (Q12866 whole entry, looked up): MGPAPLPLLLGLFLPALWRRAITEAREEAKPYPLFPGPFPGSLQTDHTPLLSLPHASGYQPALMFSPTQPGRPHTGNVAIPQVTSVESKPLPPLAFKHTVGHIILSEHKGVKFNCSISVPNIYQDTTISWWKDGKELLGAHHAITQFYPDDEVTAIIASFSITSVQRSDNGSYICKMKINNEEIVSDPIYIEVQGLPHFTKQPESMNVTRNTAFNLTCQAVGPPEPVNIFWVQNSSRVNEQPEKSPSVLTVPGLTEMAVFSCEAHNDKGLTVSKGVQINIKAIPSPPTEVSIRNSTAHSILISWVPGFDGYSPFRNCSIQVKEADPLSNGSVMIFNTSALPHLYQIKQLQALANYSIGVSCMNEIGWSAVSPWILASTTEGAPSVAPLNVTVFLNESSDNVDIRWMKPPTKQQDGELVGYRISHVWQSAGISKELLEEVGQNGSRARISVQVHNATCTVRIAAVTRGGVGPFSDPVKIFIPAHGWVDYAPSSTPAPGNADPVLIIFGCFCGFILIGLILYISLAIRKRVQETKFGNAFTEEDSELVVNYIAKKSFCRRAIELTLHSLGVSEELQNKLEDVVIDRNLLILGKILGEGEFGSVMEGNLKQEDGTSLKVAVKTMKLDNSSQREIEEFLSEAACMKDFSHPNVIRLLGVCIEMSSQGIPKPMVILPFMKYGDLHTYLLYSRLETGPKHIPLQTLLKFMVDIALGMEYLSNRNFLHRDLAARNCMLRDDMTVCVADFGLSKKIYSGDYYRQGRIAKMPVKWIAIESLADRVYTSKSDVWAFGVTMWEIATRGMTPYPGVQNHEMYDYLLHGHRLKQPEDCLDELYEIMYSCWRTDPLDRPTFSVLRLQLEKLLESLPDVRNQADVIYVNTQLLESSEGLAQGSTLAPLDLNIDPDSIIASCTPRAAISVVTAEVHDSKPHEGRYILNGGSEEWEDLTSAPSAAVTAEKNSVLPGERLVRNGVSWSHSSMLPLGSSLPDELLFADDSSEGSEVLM
Jak2, sequence (O60674 whole entry, looked up): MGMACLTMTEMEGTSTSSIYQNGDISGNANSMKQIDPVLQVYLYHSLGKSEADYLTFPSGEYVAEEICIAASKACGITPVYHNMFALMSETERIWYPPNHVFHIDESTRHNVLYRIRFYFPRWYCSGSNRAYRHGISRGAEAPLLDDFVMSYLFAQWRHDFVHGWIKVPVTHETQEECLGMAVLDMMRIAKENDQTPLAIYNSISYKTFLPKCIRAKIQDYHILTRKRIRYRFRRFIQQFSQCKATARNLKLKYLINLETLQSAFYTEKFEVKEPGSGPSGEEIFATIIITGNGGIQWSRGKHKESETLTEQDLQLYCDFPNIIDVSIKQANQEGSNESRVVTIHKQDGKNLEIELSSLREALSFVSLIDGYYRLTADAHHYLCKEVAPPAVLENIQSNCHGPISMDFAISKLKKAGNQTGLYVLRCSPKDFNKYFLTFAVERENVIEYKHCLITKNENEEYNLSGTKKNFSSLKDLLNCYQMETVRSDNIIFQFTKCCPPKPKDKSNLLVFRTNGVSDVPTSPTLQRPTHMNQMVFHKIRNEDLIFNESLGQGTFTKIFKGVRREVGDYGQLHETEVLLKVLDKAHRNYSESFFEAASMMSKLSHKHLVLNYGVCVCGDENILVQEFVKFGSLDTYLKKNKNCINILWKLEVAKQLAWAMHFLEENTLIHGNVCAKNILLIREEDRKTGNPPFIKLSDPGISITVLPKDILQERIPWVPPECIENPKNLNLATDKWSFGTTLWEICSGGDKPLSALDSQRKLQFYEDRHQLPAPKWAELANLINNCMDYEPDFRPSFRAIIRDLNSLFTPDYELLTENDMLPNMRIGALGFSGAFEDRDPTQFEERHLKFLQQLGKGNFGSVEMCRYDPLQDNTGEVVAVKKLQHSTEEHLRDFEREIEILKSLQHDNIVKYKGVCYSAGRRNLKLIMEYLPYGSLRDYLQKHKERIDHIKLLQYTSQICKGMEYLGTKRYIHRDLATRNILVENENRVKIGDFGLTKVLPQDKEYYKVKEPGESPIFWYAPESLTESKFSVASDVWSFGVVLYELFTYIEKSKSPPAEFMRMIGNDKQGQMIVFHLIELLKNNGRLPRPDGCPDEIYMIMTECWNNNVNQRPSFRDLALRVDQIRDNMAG
FGFR1, sequence (P11362 whole entry, looked up): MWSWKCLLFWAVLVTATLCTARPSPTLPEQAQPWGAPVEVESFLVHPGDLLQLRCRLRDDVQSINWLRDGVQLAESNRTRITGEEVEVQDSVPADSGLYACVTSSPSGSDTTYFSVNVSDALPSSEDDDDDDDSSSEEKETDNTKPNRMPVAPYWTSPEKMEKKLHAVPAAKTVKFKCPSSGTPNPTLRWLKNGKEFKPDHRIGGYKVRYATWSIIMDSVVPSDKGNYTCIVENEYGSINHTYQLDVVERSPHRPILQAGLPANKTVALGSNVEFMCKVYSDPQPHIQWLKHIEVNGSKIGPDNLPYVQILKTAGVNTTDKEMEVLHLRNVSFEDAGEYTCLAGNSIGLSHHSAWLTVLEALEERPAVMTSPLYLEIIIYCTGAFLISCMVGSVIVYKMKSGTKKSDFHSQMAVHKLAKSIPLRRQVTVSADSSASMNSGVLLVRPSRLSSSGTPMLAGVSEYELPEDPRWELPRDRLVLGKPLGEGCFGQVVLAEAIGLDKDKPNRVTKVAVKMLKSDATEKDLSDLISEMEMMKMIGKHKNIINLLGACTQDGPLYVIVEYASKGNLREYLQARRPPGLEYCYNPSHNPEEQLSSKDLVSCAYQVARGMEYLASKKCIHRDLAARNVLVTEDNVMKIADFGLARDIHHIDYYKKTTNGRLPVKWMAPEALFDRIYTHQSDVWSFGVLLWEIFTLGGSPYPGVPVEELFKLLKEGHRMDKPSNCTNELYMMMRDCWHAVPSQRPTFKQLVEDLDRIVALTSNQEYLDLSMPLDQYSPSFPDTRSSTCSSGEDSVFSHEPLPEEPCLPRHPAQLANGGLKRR
Fyn, sequence (P06241 whole entry, looked up): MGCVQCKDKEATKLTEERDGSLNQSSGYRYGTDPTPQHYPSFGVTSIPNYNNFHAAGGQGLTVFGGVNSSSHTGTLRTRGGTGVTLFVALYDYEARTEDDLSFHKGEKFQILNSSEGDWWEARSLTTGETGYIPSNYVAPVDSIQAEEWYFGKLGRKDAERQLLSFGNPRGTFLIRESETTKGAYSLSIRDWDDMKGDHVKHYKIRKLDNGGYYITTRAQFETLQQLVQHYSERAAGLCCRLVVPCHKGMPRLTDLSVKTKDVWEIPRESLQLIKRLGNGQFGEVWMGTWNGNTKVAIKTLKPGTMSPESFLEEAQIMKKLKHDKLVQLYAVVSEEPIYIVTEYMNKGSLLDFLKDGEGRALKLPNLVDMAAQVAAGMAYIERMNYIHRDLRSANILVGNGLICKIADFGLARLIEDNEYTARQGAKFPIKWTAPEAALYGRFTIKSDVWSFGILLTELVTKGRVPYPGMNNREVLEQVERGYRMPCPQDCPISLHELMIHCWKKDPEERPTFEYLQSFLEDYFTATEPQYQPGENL
Fes, sequence (P07332 whole entry, looked up): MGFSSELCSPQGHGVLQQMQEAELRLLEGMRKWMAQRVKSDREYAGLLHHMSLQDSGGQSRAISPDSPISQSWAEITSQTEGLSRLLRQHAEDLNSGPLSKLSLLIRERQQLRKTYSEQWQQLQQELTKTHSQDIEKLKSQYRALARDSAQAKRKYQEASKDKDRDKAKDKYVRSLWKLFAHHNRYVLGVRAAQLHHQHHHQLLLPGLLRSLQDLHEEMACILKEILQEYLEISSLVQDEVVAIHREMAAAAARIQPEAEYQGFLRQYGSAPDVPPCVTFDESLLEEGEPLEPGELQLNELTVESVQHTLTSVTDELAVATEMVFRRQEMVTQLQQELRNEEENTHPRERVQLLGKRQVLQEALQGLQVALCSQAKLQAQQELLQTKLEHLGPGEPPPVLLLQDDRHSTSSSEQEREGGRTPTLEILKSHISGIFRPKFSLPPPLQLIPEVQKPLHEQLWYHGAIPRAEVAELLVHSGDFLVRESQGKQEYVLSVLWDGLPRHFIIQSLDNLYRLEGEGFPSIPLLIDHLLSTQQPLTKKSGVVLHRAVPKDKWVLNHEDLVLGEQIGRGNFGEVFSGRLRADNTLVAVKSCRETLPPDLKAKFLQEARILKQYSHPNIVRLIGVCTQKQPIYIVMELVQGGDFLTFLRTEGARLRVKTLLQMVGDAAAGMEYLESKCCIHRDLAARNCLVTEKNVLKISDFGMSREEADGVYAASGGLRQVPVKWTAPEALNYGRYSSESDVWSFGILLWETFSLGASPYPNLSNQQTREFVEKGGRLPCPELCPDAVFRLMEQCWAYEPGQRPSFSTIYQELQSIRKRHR
Hck, sequence (P08631 whole entry, looked up): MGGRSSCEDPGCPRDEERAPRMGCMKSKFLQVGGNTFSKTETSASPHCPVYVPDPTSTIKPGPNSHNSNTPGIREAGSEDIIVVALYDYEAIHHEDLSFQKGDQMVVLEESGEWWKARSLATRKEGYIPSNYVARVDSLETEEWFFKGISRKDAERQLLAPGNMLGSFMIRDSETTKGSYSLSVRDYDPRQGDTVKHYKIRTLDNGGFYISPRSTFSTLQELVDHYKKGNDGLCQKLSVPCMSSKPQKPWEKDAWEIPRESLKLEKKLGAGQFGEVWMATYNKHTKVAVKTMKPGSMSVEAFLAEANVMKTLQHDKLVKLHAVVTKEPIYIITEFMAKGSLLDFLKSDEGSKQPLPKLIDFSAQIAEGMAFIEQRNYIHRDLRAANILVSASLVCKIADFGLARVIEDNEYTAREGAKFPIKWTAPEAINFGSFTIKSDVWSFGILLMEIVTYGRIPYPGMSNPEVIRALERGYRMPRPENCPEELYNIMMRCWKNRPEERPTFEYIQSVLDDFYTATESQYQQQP
Grb2 SH2, sequence (P62993 whole entry, looked up, the tested form may be a part): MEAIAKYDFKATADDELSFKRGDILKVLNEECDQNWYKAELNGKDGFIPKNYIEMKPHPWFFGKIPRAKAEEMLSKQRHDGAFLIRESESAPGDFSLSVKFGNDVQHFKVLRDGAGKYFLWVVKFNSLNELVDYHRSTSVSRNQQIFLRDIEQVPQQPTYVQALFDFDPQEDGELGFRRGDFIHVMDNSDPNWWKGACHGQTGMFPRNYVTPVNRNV

Sequence | phosphorylation enrichment (Hck) | phosphorylation enrichment (c-Src) | phosphorylation enrichment (Jak2) | phosphorylation enrichment (Fyn) | phosphorylation enrichment (EPHB2) | phosphorylation enrichment (EPHB1) | phosphorylation enrichment (AncSZ) | phosphorylation enrichment (Fer (mouse)) | phosphorylation enrichment (MERTK) | phosphorylation enrichment (FGFR3) | phosphorylation enrichment (Fes) | phosphorylation enrichment (c-Abl (mouse)) | phosphorylation enrichment (FGFR1) | SH2 binding enrichment (c-Src SH2) | SH2 binding enrichment (SHP2-C SH2) | SH2 binding enrichment (Grb2 SH2)
WPQKLYNNFVN [MYO5C_Y526_L522P] | 0.528 | 0.626 | 0.725 | 0.439 | 0.546 | 0.407 | 0.795 | 0.377 | 0.505 | 0.518 | 0.884 | 0.687 | 0.445 | 0.59 | 0.668 | 1.11
WSFNLYDINKD [KCNIP3_Y174_A170S] | 1.29 | 0.88 | 1.12 | 1.07 | 0.875 | 0.894 | 1.36 | 1.01 | 0.796 | 0.819 | 1.45 | 0.68 | 0.566 | 0.469 | 0.676 | 0.676
WVYNHYRCIIW [BRCA2_Y2624_W2626C] | 0.538 | 0.481 | 1.4 | 0.515 | 0.645 | 0.806 | 1.28 | 0.569 | 0.659 | 0.891 | 1.63 | 1.18 | 0.562 | 0.58 | 1 | 0.94
YAFQLYDLDPD [CHP2_Y123_R127P] | 2.56 | 5 | 1.32 | 4.7 | 0.998 | 1.52 | 1.66 | 0.916 | 2.01 | 1.37 | 1.37 | 0.78 | 1.65 | 1.28 | 1.71 | 0.986
YDEYRYRSFIK [CFTR_Y517_V520F] | 1.51 | 1.62 | 1.14 | 2.33 | 0.596 | 0.54 | 1.06 | 0.64 | 0.518 | 0.679 | 0.946 | 0.957 | 0.495 | 1.21 | 0.849 | 0.901
YEREQYADRAR [RBM4_Y355] | 0.439 | 0.338 | 0.575 | 0.37 | 0.432 | 0.383 | 0.701 | 0.441 | 0.29 | 0.534 | 0.707 | 0.531 | 0.495 | 0.591 | 0.727 | 0.881
YETDYYQKGGK [INSR_Y1190_R1191Q] | 0.639 | 0.459 | 0.716 | 0.519 | 0.615 | 0.63 | 1.34 | 0.573 | 0.664 | 0.907 | 0.919 | 0.526 | 0.983 | 1.1 | 1.16 | 0.863
